Numbering of substitutions follows the chain as printed.
Tests used:
Test in all cases: EMSA; 500 ng protein; 1X LightShift EMSA binding buffer, 50 ng/ul poly(dI-dC), 20 fmol probe in 20 ul, +/- 4 pmol unlabeled DNA, room temperature 30 min; 5% native PAGE, 0.5X TBE; pH and salt not given
Conditions in all cases: protein: recombinant; tags: His (pET28a); label: 3'-biotin on strand 1; blunt
[1] = molecular target: T1, CAMTA3 CG-1 M6 (Arabidopsis thaliana, UniProt Q8GSA7 1-153, Y132A)
T1 sequence: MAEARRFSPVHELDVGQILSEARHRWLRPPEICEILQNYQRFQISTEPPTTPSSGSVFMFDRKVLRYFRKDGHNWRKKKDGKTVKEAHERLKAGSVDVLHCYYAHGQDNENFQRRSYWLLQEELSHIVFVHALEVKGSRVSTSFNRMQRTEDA

[2] = molecular target: T2, CAMTA3 CG-1 M1 (Arabidopsis thaliana, UniProt Q8GSA7 1-153, W26A)
T2 sequence: T1 sequence with W26A, A132Y

[3] = molecular target: T3, CAMTA3 CG-1 M4 (Arabidopsis thaliana, UniProt Q8GSA7 1-153, Y102A;Y103A)
T3 sequence: T1 sequence with Y102A, Y103A, A132Y

[4] = molecular target: T4, CAMTA3 CG-1 M2 (Arabidopsis thaliana, UniProt Q8GSA7 1-153, W75A)
T4 sequence: T1 sequence with W75A, A132Y

[5] = molecular target: T5, CAMTA3 CG-1 M3 (Arabidopsis thaliana, UniProt Q8GSA7 1-153, H88A)
T5 sequence: T1 sequence with H88A, A132Y

Measured: binding result

B1: PDF1.4 promoter probe (dsDNA)
DNA 1: CGTGAAAGTCACGCGCCAAGAACAAA
DNA 2: TTTGTTCTTGGCGCGTGACTTTCACG
no binding: all assays above
